Test results from the supplement of paper PMC10567573.

B1: FAM189A2 (parent)
chain: PRCDLVDLGEGKICFCCEEFQPAK
B2: CDC25B (parent)
chain: KSPIAPCSLDKRVILIFHCEFSSE

Variants of: B1
Assay: protein stability index of a GFP-peptide fusion (GPS, HEK-293T) (PSI 1-6); higher = more stable
Conditions: c terminus: a fixed tail appended
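Also: lentivirally expressed fusions sorted by FACS into six bins by GFP to DsRed ratio, PSI derived from sequencing read proportions per bin multiplied by bin number.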

Protein stability index: each site, then its substitutions
G9: T 2.83; D 3.18; S 2.77; L 2.21; R 2.14; K 2.96; N 2.28; Y 2.94; Q 2.33; C 2.91; A 2.9
L5: D 3.95; R 2.98; I 3.13; H 4.84; Q 3.73; E 3.84; M 2.86; W 2.16; A 3.98; C 4.89; V 3.02; G 4.44; K 4.28; N 3.52; T 3.47; Y 2.85; F 2.6; S 3.03; P 3.39

Variants of: B2
Assay: as above
Conditions: c terminus: a fixed tail appended

Protein stability index, by site and new letter:
L15: T 1.8; Q 1.84; E 1.83; D 2.38; M 2.88; G 1.39; Y 2.66; S 1.86; H 1.05; N 2.21; A 2.68; F 2.88; P 2.28; R 1.71; K 1.42; I 3.49
E24: L 1.98; G 2.09; V 2.98; K 3.12; Q 2.38; D 2.77; T 2.44; Y 2.39
F17: R 1.69; T 1.8; I 2.47; P 2.36; H 1.64; K 2.33; D 3.13; V 4.17; G 1.39; E 2.76; A 1.92; S 1.8; M 1.66; N 2.54; Q 2.44; C 2.19
S23: V 2.95; F 4.12; N 2.25; W 3.34; C 1.23; A 4.14; M 2.11; I 2.64; L 2.04; E 1.73; Q 2.79; T 2.89
S22: Y 2.31; Q 2.5; T 2.88; C 1.43; F 2.21; A 3.41; H 2.09; W 4.72; M 2.66; P 2.1; D 3.4; K 2.08; I 1.34
C19: H 1.89; K 2.03; N 1.32; R 2.96; A 3.06; P 2.75; Y 2.08; W 2.31; S 4.17; D 2.34; I 2.77; Q 4.16; E 1.85; T 3.92
I16: W 1.05; M 2.25; A 1.52; K 1.39; C 2.93; P 3.02; R 2.5; G 1.4; D 2.92; Q 1.52; S 2.01; L 1.38; Y 2.91; E 1.07; T 2.18; N 2.54; V 1.06; H 1.68
I14: V 2.87
H18: D 3.1; G 2.81; C 3.24; S 3.34; A 3.34; M 1.88; K 2.45; Y 2.5; N 2.26; I 1.86; P 2.44; F 3.53
F21: D 1.51; S 2.69; A 2.32; I 2.1; H 2.91; N 1.88; P 2.66; M 3.21; R 2.15; T 3.13; G 2.94; C 2.97; Q 2.53; K 1.5
E20: M 2.51; H 2.2; V 2.73; D 2.58; K 1.64; P 3.36; G 2.81; S 3.75; C 4.34; A 1.82; F 2.05; I 2.55; N 3.58
